Assay results reported in the DeepSol protein solubility set.

experiment: soluble on expression in E. coli; label from the status in PepcDB or PDB records

For “MGSDKIHHHHHHMVKTNVTIMRGGTSKGVFFHESAMPNNKNEWEPFLLDVMGSPDKRQIDGLGGGNSLTSKVAIIKKAYTSDIDVHYTFGQVSISEEKVDFKGNCGNISAAVGPFAIEEGLVKAKEPMTAVRILNTNTNKMIIAEVEVEDGQVKYDGDVTISGVPGSGSPIYLNFHDAAGSVTGHLLPTGNSSEFLDTSQGQIEVSIIDYANPLVFVEASSIGLDGTELAEEFTDLQLAQFEELRSIAAEKCGFASRFSATKLSPAVPKLAIVAKPEKYKDSTGAWHSSVEMDLHIRMMSMQKSHQALAVTGAICTTRALSVEGAIPARIAKNHSTKVRLAHSSGIIETMVEPTGIKIVRTARRIMDGTVYTHGDYQMM”, which “soluble on expression in E. coli” value is on record?
Its value is “not soluble”.

For “MRHCGWLLGLLSLFSLATHASDWQEIKNEAKGQTVWFNAWGGDTAINRYLDWVSGEMKTHYAINLKIVRLADAADAVKRIQTEVAAGRKTGGSVDLLWVNGENFRTLKEANLLQTGWAETLPNWRYVDTQLPVREDFSVPTEGAESPWGGAQLTFIARRDVTLQPPQTPQALLEFAKANPGTVTYPRPPDFTGTAFLEQLLIMLTPDPTALKEAPDDATFARVTAPLWQYLDALHPYLWREGKDFPPSPARMDALLKANTLRLSLTFNPAHAQQKIASGDLPASSYSFGFREGMIGNVHFVTIPANANASAAAKVVANFLLSPDAQLRKADPAVWGDPSVLDPQKLPDGQRESLQSRMPQDLPPVLAEPHAGWVNALEQEWLHRYSTH”, which “soluble on expression in E. coli” value is on record?
The value was “not soluble”.

With “MADRLIVKGAREHNLRSVDLDLPRDALIVFTGLSGSGKSSLAFDTIFAEGQRRYVESLSAYARQFLGQMDKPDVDFIEGLSPAVSIDQKSTNRNPRSTVGTITEVYDYLRLLYARAGTPHCPTCGERVARQTPQQIVDQVLAMPEGTRFLVLAPVVRTRKGEFADLFDKLNAQGYSRVRVDGVVHPLTDPPKLKKQEKHDIEVVVDRLTVKAAAKRRLTDSVETALNLADGIVVLEFVDHELGAPHREQRFSEKLACPNGHALAVDDLEPRSFSFNSPYGACPECSGLGIRKEVDPELVVPDPDRTLAQGAVAPWSNGHTAEYFTRMMAGLGEALGFDVDTPWRKLPAKARKAILEGADEQVHVRYRNRYGRTRSYYADFEGVLAFLQRKMSQTESEQMKERYEGFMRDVPCPVCAGTRLKPEILAVTLAGESKGEHGAKSIAEVCELSIADCADFLNALTLGPREQAIAGQVLKEIRSRLGFLLDVGLEYLSLSRAAATLSGGEAQRIRLATQIGSGLVGVLYVLDEPSIGLHQRDNRRLIETLTRLRDLGNTLIVVEHDEDTIEHADWIVDIGPGAGEHGGRIVHSGPYDELLRNKDSITGAYLSGRESIEIPAIRRSVDPRRQLTVVGAREHNLRGIDVSFPLGVLTSVTGVSGSGKSTLVNDILAAVLANRLNGARQVPGRHTRVTGLDYLDKLVRVDQSPIGRTPRSNPATYTGVFDKIRTLFAATTEAKVRGYQPGRFSFNVKGGRCEACTGDGTIKIEMNFLPDVYVPCEVCQGARYNRETLEVHYKGKTVSEVLDMSIEEAAEFFEPIAGVHRYLRTLVDVGLGYVRLGQPAPTLSGGEAQRVKLASELQKRSTGRTVYILDEPTTGLHFDDIRKLLNVINGLVDKGNTVIVIEHNLDVIKTSDWIIDLGPEGGAGGGTVVAQGTPEDVAAVPASYTGKFLAEVVGGGASAATSRSNRRRNVSA” as the sequence, how does the “soluble on expression in E. coli” value read?
Its value is “soluble”.

For “MKFIFFVLYVLQFLPFALLHKIADLTGLLAYLLVKPRRRIGEINLAKCFSEWSEEKRKTVLKQHFKHMAKLMLEYGLYWYAPAGRLKSLVRYRNKHYLDDALAAGEKVIILYPHFTAFEMAVYALNQDIPLISMYSHQKNKILDEQILKGRNRYHNVFLIGRTEGLRALVKQFRKSSAPFLYLPDQDFGRNDSVFVDFFGIQTATITGLSRIAALANAKVIPAIPVREADNTVTLHFYPAWKSFPGEDAKADAQRMNRFIEDRVREHPEQYFWLHKRFKTRPEGSPDFY”, which “soluble on expression in E. coli” value is on record?
The value was “not soluble”.

With “MSLSQNNPLRALLDKQDILLLDGAMATELEARGCNLADSLWSAKVLVENPELIREVHLDYYRAGAQCAITASYQATPAGFAARGLDEAQSKALIGKSVELARKAREAYLAENPQAGTLLVAGSVGPYGAYLADGSEYRGDYHCSVEAFQAFHRPRVEALLDAGADLLACETLPNFSEIEALAELLTAYPRARAWFSFTLRDSEHLSDGTPLRDVVALLAGYPQVVALGINCIALENTTAALQHLHGLTVLPLVVYPNSGEHYDAVSKTWHHHGEHCAQLADYLPQWQAAGARLIGGCCRTTPADIAALKARSEGGSHHHHHH” as the sequence, how does the “soluble on expression in E. coli” value read?
Its value is “soluble”.

With “MGSDKIHHHHHHMNTGASAGVCDAFDRGRFRNAIEVFSSRMPAEIRTARASDVDDLAAIEKAVFSSDRISRRSFRLFIERETAETLVAEVDGRVAGYAIVLFRKGSGVARLYSIAVGPFFGALGIGRQLLTAAEEAAFEHDRMMLRLEVREDNSRAIRIYEQAGYRKIGREPGYYEDGATALRYEKTLRGDLPVATRVPFYQQTCEFTCGPCCLMMAMANFDRGFVPDPVMEIRLWREATTVFMMSGPGGCEPFGLAVSGYESGLAAEIFVSFYGALFLQSVRSEDKRRVMELAQVDFRRRAELYGIPVNCRPFTLDDIRTAIAAGKLVLVLISGFLMFGKKVPHWVLAIGDDGDHILIHDPWVEDERQETILDAANIPVPYGIFMNMAQFGRDGLRAAITLGKRDTQ” as the sequence, how does the “soluble on expression in E. coli” value read?
The value was “not soluble”.

Which “soluble on expression in E. coli” value does the source give for “MSLEKKMEEKKKIKLIATDMDGTLVNDAKEVPASFAPWVLSHPDQQMVIASGRPYYTNEELFKEIKDHLIFIGDNGGLIYQQGQVLAKAGITAEEAKFCLDLFKDEPLANPILCGASQAICHDPKGDRNFLKQLDTYYIKRRYVEDLEAEVNSDEIIKFTVYIEGGAAESIYRQLPEMPGNLSAVLAGPEWIDIVNKDANKGAAVKKIADLKGIKQDEILAFGDYLNDLTMLEAAGTSYAMVNGHPDLKKIADHIAPSNNDEGVMQILRKLFDEGHHHHHH” here?
The value was “soluble”.

For “SDLSWIKPGKVAWDWWNDWNLDGVDFVTGVNNPTYKAYIDFASANGIEYVILDEGWAVNLQADLMQVVKEIDLKELVDYAASKNVGIILWAGYHAFERDMENVCRHYAEMGVKGFKVDFMDRDDQEMTAFNYRAAEMCAKYKLILDLHGTHKPAG”, which “soluble on expression in E. coli” value is on record?
The value was “not soluble”.

Which “soluble on expression in E. coli” value does the source give for “MSLSILQRLIQQAKNPRGTIGSSMLCIMNTAHTRLTNWALQKVHIKKDAIILDIGCGGGKTIHTLSKRTPLGKIYGIDYSYQAVKNSIQTNIKDVQKQKVIVQQASVSSIPYHTNFFDLITAFQTHYFWPDVEQDIKEVFRVLQPNGSFLLVAETFKIQYHMEKWKTNEELINLFYKTGFTSVKCYEERGCLCVIGTKEGHHHHHH” here?
The value was “not soluble”.

Which “soluble on expression in E. coli” value does the source give for “SLMKQIKHFNQNYQELRQLGKVAIGRRAGKLKAGTIILFAVDSQGKILAARKMQGVTVLAKFHPLPQYVNEDIHYMDHYHPLVQKENKLTQQAMENAREIYLRVELGNYQETQPLTPLNGAKIQWQLWKNKVQTKLKGSVE” here?
Its value is “soluble”.

For “MKKSLGARTLAYPTPLFLVGTYDRDSRPNIMAAAWAGICCSQPPSIAVSLRKATYTYRSITERGAFTISIPSRAYVRHADYAGIYSGENEDKFASLGLTPVPGEHVDAPYVGEFPMAIELKLIHQIEIGLHTQFIGEIMDVKVDESCLRDDGLPDINKVDPVIFAPVSREYYAVGEFLAKAFSAGKGLRS”, which “soluble on expression in E. coli” value is on record?
Its value is “soluble”.

Which “soluble on expression in E. coli” value does the source give for “MGSDKIHHHHHHMRPIQRKRVPGLNAWEARWYHGTKWVRVSSANGKSRRARRFSLMVLGGWVMERAQHNLRFTELARARAYAQAHGLRQKAVCHIVRRGTELLVFDHVPDGGAGVQVVAGGLEAGETPEQAALREAGEETGQDGFQVVGFLGSAVWLNTEHAKRELRHFVHLTAPDDLPDTWQHCADGHLFSFRWEPLHSARVDWEMDAFLPELG” here?
Its value is “not soluble”.

Which “soluble on expression in E. coli” value does the source give for “MLSSTAIAKWQKINDVDYTWGPFKIYNISLFTETGEYKPQERPIMLTLRYNKPVDGRDFAISVAKSWANLGIALSEQNVVIERLRKILPDLKSGDALSYIALSDHGYFVLNDQVIEQEFNHEFNDAMLAIWLDPKVELSHKLITKKIEGAAQAVHYSAEYREKVTSSSEDLVSQEQRQQNLPNGTPSEATSLTEQEEREDDEKAPAISDAENDLRHSIDESAPQIVEPEQEIIPNVDPMPDYQLPVS” here?
The value was “not soluble”.

For “MGSDKIHHHHHHVVDVAHAVKPMSVPQRIEQASRHDLLVLSSQSGPRQSAWSSLTSALGGQDIDDHAGMPCRRVMLMLAEHEAELLRRECQLIPIVGADAVAQSVTLTKKAVPGNWCAWGVLDRDAAQQHLDAKIVSMGARLRDEPAFGLMFSCLARGPHFYDGVDQDIALLKRYYPSMPVIGFYGNGEIAPLNGRNVLWQNSVVLGLFTAES”, which “soluble on expression in E. coli” value is on record?
Its value is “not soluble”.

Which “soluble on expression in E. coli” value does the source give for “SLLTTCKSVLKLPYLEKIKVVAGEKGLNRIITWVQVVEYPEYSKWLKGGELILISGIAIKNNINSLVNFIRDINSRSLSGIVISIGPYIKEIPKEVIEIGNQLDFPIFEIPFEVKFIDVSQSICKAIFANKVNQESMENFMKDIIFRDFTFSEDILSRAVAYGYNPKTKYISFVVELHNEKDMLECDLKTKQYIEQIVIEVLGEWNKRSIHIMQYNSIILMLPKNEKRTIKNIAMNIIEEIISKAKNTSVNIGVGGEFSELRDFKISVSEAHRCLKVLKLNNDNNTVISYDELGIYKLFFQMDNLEEMKKFYLDVLKKLIDYDSKN” here?
The value was “soluble”.

With “MNEIIMLLRTIPTSKLIQPIMQLFIDNAILNIVQNDALLIEKATHARNHLRLWSLQGHRDIPNLEHHHHHH” as the sequence, how does the “soluble on expression in E. coli” value read?
Its value is “not soluble”.

For “MHHHHHHGKPIPNPLLGLDSTENLYFQGIDPFTDVAAPSPAAAAEPGPAARPRSTRGQVRLPGGEFAMGDAFGEGYPADGETPVHTVRLRPFHIDETAVTNARFAAFVKATGHVTDAERFGSSAVFHLVVAAPDADVLGSAAGAPWWINVRGAHWRRPEGARSDITGRPNHPVVHVSWNDATAYARWAGKRLPTEAEWEYAARGGLAGRRYAWGDELTPGGRWRCNIWQGRFPHVNTAEDGHLSTAPVKSYRPNGHGLWNTAGNVWEWCSDWFSPTYYAESPTVDPHGPGTGAARVLRGGSYLCHDSYCNRYRVAARSSNTPDSSSGNLGFRCANDADLTSGSAAE”, which “soluble on expression in E. coli” value is on record?
The value was “soluble”.

Which “soluble on expression in E. coli” value does the source give for “SLHIQRKSTMSKCSADETPVCCCMDVGTIMDNSDCTASYSRVFANRAEAEQTLAALTEKARSVESEPCKITPTFTEESDGVRLDIDFTFACEAEMLIFQLGLR” here?
Its value is “soluble”.

For “MSMQHESPIKRRPSTRIYVGDVPIGDGAPIAVQSMTNTRTTDVAATVAQIKSLEKVGADIVRVSVPTMEAAEAFKLIKQQVSVPLVADIHFDYRIALKVAEYGVDCLRINPGNIGNEARIRSVVDCARDKGIPIRIGVNGGSLEKDLQLKYGEPTPEALVESAMRHVDILDRLNFDQFKVSVKASDVFLAVDSYRLLAKKIDQPLHLGITEAGGARAGSVKSAVGLGMLLAEGIGDTLRISLAADPVEEIKVGFDILKSLRIRSRGINFIACPSCSRQEFDVIGTVNALEQRLEDVLTPMDVSIIGCVVNGPGEAEVSHLGLAGSNKKSAFYEDGVRQKERFDNDDLVAQLEAKIRAKAARLDEKNRIDIKHVEQD”, which “soluble on expression in E. coli” value is on record?
The value was “not soluble”.

Which “soluble on expression in E. coli” value does the source give for “LVERDSFVNALRESERRYRNIIETASEGILIIDSEVRISYANKKMTDMLGCPLEEVTGRKMCDFVSEESKDIVKLNQKRRRQGINDSYELKLVCKDGSSLWALVNAKSLFDKDGKFMGSISLLTDIT” here?
The value was “not soluble”.

Which “soluble on expression in E. coli” value does the source give for “MSLKVFQFKDWAVACDNIRHCEANGTQAGDGDNPVSLLLSRDAGPGSRLSAQLDVDDPDGDKVGKLTLKVGRIKWTGIDAEQAFSDAQTTQLLAAMLDADEVALADGKREWTLSLAGLKAALLKMDDVQGRVGTVGALVKKGGKPESAAPAAQPAPLLVPLAPPAARPGDQKLLPAILKQLRAVDKACWDELPDAEHPDVQLYRLSASQVLVLRECGRGAYQGSYKAWTSGDAPPFHPREVPLRGSDGKETFLMNASFDKGELSSYAKGRGIGDCGSGASWAWTGKDFKLMSAQEAPQCRGIAGGVSLRTWVTRQKEGHHHHHH” here?
Its value is “soluble”.
